Source: paper PMC9263355 (2022)

Molecular target: 4-1BB (Homo sapiens, UniProt Q07011)
Experiment: fluorescence anisotropy

Chain of 4-1BB (Q07011 24-255): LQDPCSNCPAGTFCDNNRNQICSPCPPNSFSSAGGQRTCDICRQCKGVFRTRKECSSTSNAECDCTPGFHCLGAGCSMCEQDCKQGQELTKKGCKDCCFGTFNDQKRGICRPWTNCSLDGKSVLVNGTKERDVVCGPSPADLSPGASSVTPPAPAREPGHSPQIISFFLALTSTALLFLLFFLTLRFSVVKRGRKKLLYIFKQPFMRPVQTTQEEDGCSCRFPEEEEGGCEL

Kd: ~1.5 µM
B1: Galectin-9N N-terminal CRD (protein)
chain: MAFSGSQAPYLSPAVPFSGTIQGGLQDGLQITVNGTVLSSSGTRFAVNFQTGFSGNDIAFHFNPRFEDGGYVVCNTRQNGSWGPEERKTHMPFQKGMPFDLCFLVQSSDFKVMVNGILFVQYFHRVPFHRVDTISVNGSVQLSYISFQ
